Results published in patent US20130079499A1.
Numbering of substitutions follows the chain as printed. Read-outs that look alike come from different tables or passages of the source.

Columns and labels:
[1] = molecular target: γ-globulin formulation (KAKETSUKEN) that was a human antibody (human); test: ELISA: human γ-globulin coated 1 µg/well, culture supernatant diluted 5x, HRP anti-His-Tag detection
[2] = molecular target: γ-globulin formulation (KAKETSUKEN) that was a human antibody (human); test: as above; remark: listed apart in the source
[3] = molecular target: γ-globulin formulation (KAKETSUKEN) that was a human antibody (human); test: batch adsorption: 0.5 mL of 10 mg/mL IgG on 0.1 mL FcRm19-immobilised gel, PBS pH 7.0, eluted at pH 3.0, A280
[4] = molecular target: γ-globulin formulation (KAKETSUKEN) that was a human antibody (human); test: batch adsorption: 0.5 mL of 10 mg/mL IgG on 0.1 mL FcRm19-immobilised gel (23.0 mg FcRm19 per mL gel), PBS pH 7.0, eluted at pH 3.0, A280
[5] = molecular target: γ-globulin formulation (KAKETSUKEN) that was a human antibody (human); test: column of FcRm19-immobilised gel loaded with IgG in PBS pH 7.0; eluted with 100 mM citric acid buffer of the given pH; R=A/(A+B)x100, A280
[6] = molecular target: γ-globulin formulation (KAKETSUKEN) that was a human antibody (human); test: batch adsorption: 0.5 mL of 10 mg/mL IgG on 0.1 mL FcRm32-immobilised gel, PBS pH 7.0, eluted at pH 3.0, A280
[7] = molecular target: γ-globulin formulation (KAKETSUKEN) that was a human antibody (human); test: batch adsorption: 0.5 mL of 10 mg/mL IgG on 0.1 mL FcRm32-immobilised gel (19.3 mg FcRm32 per mL gel), PBS pH 7.0, eluted at pH 3.0, A280
[8] = molecular target: γ-globulin formulation (KAKETSUKEN) that was a human antibody (human); test: column of FcRm32-immobilised gel loaded with IgG in PBS pH 7.0; eluted with 100 mM citric acid buffer of the given pH; R=A/(A+B)x100, A280
[9] = molecular target: γ-globulin formulation (KAKETSUKEN) that was a human antibody (human); test: batch adsorption: 0.5 mL of 10 mg/mL IgG on 0.05 mL FcRm36b-immobilised gel, PBS pH 7.0, eluted at pH 3.0, A280
[10] = molecular target: γ-globulin formulation (KAKETSUKEN) that was a human antibody (human); test: column of FcRm36b-immobilised gel loaded with IgG in PBS pH 7.0; eluted with 100 mM citric acid buffer of the given pH; R=A/(A+B)x100, A280
[11] = molecular target: γ-globulin formulation (KAKETSUKEN) that was a human antibody (human); test: batch adsorption: 0.5 mL of 10 mg/mL IgG on 0.05 mL FcRm36b-immobilised gel (21.0 mg FcRm36b per mL gel), PBS pH 7.0, eluted at pH 3.0, A280
[12] = molecular target: γ-globulin formulation (KAKETSUKEN) that was a human antibody (human); test: batch adsorption: 0.5 mL of 10 mg/mL IgG on 0.05 mL FcRm48-immobilised gel, PBS pH 7.0, eluted at pH 3.0, A280
[13] = molecular target: γ-globulin formulation (KAKETSUKEN) that was a human antibody (human); test: batch adsorption: 0.5 mL of 10 mg/mL IgG on 0.05 mL FcRm48-immobilised gel (13.6 mg FcRm48 per mL gel), PBS pH 7.0, eluted at pH 3.0, A280
[14] = molecular target: γ-globulin formulation (KAKETSUKEN) that was a human antibody (human); test: column of FcRm48-immobilised gel loaded with IgG in PBS pH 7.0; eluted with 100 mM citric acid buffer of the given pH; R=A/(A+B)x100, A280
[15] = molecular target: γ-globulin formulation (KAKETSUKEN) that was a human antibody (human); test: batch adsorption: 3.0 mL of 10 mg/mL IgG on 0.5 mL FcRm56b-immobilised gel, PBS pH 7.0, eluted at pH 3.0, A280
[16] = molecular target: γ-globulin formulation (KAKETSUKEN) that was a human antibody (human); test: batch adsorption: 3.0 mL of 10 mg/mL IgG on 0.5 mL FcRm56b-immobilised gel (18.7 mg FcRm56b per mL gel), PBS pH 7.0, eluted at pH 3.0, A280
[17] = molecular target: γ-globulin formulation (KAKETSUKEN) that was a human antibody (human); test: column of FcRm56b-immobilised gel loaded with IgG in PBS pH 7.0; eluted with 100 mM citric acid buffer of the given pH; R=A/(A+B)x100, A280
[18] = molecular target: γ-globulin formulation (KAKETSUKEN) that was a human antibody (human); test: batch adsorption: 3.0 mL of 10 mg/mL IgG on 0.4 mL FcRm57b-immobilised gel, PBS pH 7.0, eluted at pH 3.0, A280
[19] = molecular target: γ-globulin formulation (KAKETSUKEN) that was a human antibody (human); test: batch adsorption: 3.0 mL of 10 mg/mL IgG on 0.4 mL FcRm57b-immobilised gel (14.2 mg FcRm57b per mL gel), PBS pH 7.0, eluted at pH 3.0, A280
[20] = molecular target: γ-globulin formulation (KAKETSUKEN) that was a human antibody (human); test: column of FcRm57b-immobilised gel loaded with IgG in PBS pH 7.0; eluted with 100 mM citric acid buffer of the given pH; R=A/(A+B)x100, A280

B1: wild-type Fc binding protein (Fc binding protein with no amino acid substitution) expressed by the pETFcR transformant (receptor)
chain: KIEEAMGQVDTTKAVITLQPPWVSVFQEETVTLHCEVLHLPGSSSTQWFLNGTATQTSTPSYRITSASVNDSGEYRCQRGLSGRSDPIQLEIHRGWLLLQVSSRVFTEGEPLALRCHAWKDKLVYNVLYYRNGKAFKFFHWNSNLTILKTNISHNGTYHCSGMGKHRYTSAGISVTVKELFPAPVLNASVTSPLLEGNLVTLSCETKLLLQRPGLQLYFSFYMGSKTLRGRNTSSEYQILTARREDSGLYWCEAATEDGNVLKRSPELELQVLGLQLPTPVHHHHHH
OD450 nm [1]: 0.22 OD450 nm
OD450 nm [2]: 0.14 OD450 nm

B2: Fc binding protein FcRm19 (19 amino acids of a wild-type Fc binding protein substituted) (receptor)
chain: KIEEAMGQVDTPKAVIKLQPPWVSVFQEESVTLHCEVPHLPGSSSTQWFLNGTAIQTSTPTYHITSASEDDSGEYRCQRGLSGRSDPIQLEVHRGWLLLQVSSRVLTEGEPLALRCHAWKDKLVYNVLYYRNGKAFKFFHWNSNLTILKTNMSHSGTYHCSGMGKHRYTSAGISVTVKELFPAPVLTASVTSPLLEGTPVTLSCETKLLLQRPGLQLYFSFYMGSKTLRGRDTSSEYQILTARREDSGLYWCEAATEDGNVLKRSPELELQVLGHQQPTPVHHHHHH
amount of the eluted IgG [3]: 2.1 mg
amount of adsorbed IgG per mL of the gel (mg per mL of gel) [4]: 21
percentage of antibody elution at pH 3.0 [5]: 99.1%
percentage of antibody elution at pH 3.4 [5]: 87.4%
percentage of antibody elution at pH 3.8 [5]: 51.3%
percentage of antibody elution at pH 4.2 [5]: 22%

B3: Fc binding protein FcRm32 (32 amino acids of a wild-type Fc binding protein substituted) (receptor)
chain: KIEEAMGQVDTPKAVIKLQPPWVSVFQGESVTLHCEAPHLSGSSSTQWFLNDTAIQASTPTYHITSASEDDSGEYRCQRGLSGRSDPIQLEVHRGWLLLQVSSRVLTEGEPLALRCHAWKDKLVHNVLYYHNGKAFKFFHRNSNLTIPKTNTSHSGTYHCSGMGRHRYTSAGTSVTVKELFPAPVLTASVTSPLHEGTQVTLSCETKLLLQRPGLQLYFSFYKGSKTLRGRDTSSEYQILTARREDSGLYWCEAATEDGNVLKRSPELELQVLGHQQPTPVHHHHHH
amount of eluted IgG [6]: 1.98 mg
amount of adsorbed IgG per mL of the gel (mg per mL of gel) [7]: 19.8
percentage of antibody elution at pH 3.0 [8]: 98.7%
percentage of antibody elution at pH 3.4 [8]: 99.3%
percentage of antibody elution at pH 3.8 [8]: 97.9%
percentage of antibody elution at pH 4.2 [8]: 82.8%

B4: Fc binding protein FcRm36b (36 amino acids of a wild-type Fc binding protein substituted) (receptor)
chain: B3 chain with Q27L, L33M, S44G, N144T
amount of eluted IgG [9]: 1.44 mg
percentage of antibody elution at pH 3.0 [10]: 99.5%
percentage of antibody elution at pH 3.4 [10]: 99.4%
percentage of antibody elution at pH 3.8 [10]: 92.2%
percentage of antibody elution at pH 4.2 [10]: 64%
amount of adsorbed IgG per mL of the gel (mg per mL of gel) [11]: 28.8

B5: Fc binding protein FcRm48 (48 amino acids of a wild-type Fc binding protein substituted) (receptor)
chain: KIEEAMGQVDTPKAVIKLQPPWVSVFLGESVTMHCEAPHLSGTGSTQWFLNDTAIQASTPTYHITSASEDDSGEYRCQRGLSGRSDPILLEVHRGWLLLQVSSRVLTEGEPLALRCHAWRDKQVHNVLFYHNGKAFKFFHRNSTLTIPRTNTSHSGTYHCSGMGRHRYTSAGTLVSVKELFPAPVLTASVTSPLHEGTQVTLSCVTKLLIQRPGLQLYFSFYKGSKTLRGRDTSSEYQILAARREDSGLYWCVAATEDGNVLKRSPELELQVLGHQQPTPVHHHHHH
amount of eluted IgG [12]: 0.94 mg
amount of adsorbed IgG per mL of the gel (mg per mL of gel) [13]: 18.8
percentage of antibody elution at pH 3.0 [14]: 99.2%
percentage of antibody elution at pH 3.4 [14]: 100%
percentage of antibody elution at pH 3.8 [14]: 98.2%
percentage of antibody elution at pH 4.2 [14]: 81.9%

B6: Fc binding protein FcRm56b (56 amino acids of a wild-type Fc binding protein substituted) (receptor)
chain: KIEEAMGQVDTPKAVIKLQPPWVSVFLGESVTMLCEVPHLSGAGSTQWFRNDTAIQASTPTYHIASASEDDSGEYRCQRGLSGRSDPILLEVHRGWLLLQVSARVLIEGEPLVLRCHAWRDKQVHNVLFYHNGKAFKFFHRNTTLTIPRTNTSHSGTYHCSGMGRHRYTSAGTLVSVKELFPAPVLTASVASPLHEGTQVTLSCVTKLLIQRPGLQLYFSFYKGSETLRGRDTSSEYQILAARREDSGLYWCEAATEDGNVVKRSPELELQVLGHQQPTPVHHHHHH
amount of eluted IgG [15]: 11.5 mg
amount of adsorbed IgG per mL of the gel (mg per mL of gel) [16]: 23
percentage of antibody elution at pH 3.0 [17]: 99.7%
percentage of antibody elution at pH 3.4 [17]: 99.5%
percentage of antibody elution at pH 3.8 [17]: 94.5%
percentage of antibody elution at pH 4.2 [17]: 73%

B7: Fc binding protein FcRm57b (57 amino acids of a wild-type Fc binding protein substituted) (receptor)
chain: B6 chain with Y62F, Q123L, H195L, Q199P, Y222F, S225G
amount of eluted IgG [18]: 6.67 mg
amount of adsorbed IgG per mL of the gel (mg per mL of gel) [19]: 16.7
percentage of antibody elution at pH 3.0 [20]: 99.3%
percentage of antibody elution at pH 3.4 [20]: 99.6%
percentage of antibody elution at pH 3.8 [20]: 90.2%
percentage of antibody elution at pH 4.2 [20]: 66.2%
